According to the supplement of paper PMC11316812:
± gives the standard deviation of the averaged measurements.

Key:
[1] = system: MCF7; assay: percentage of EdU-negative (G0-arrested) nuclei per well, 72 h; higher = more G0 arrest; settings: reference: sequence is the full UniProt precursor, the tested protein was the secreted form or ectodomain
[2] = system: hTERT-HMEC; assay: as above; settings: reference: sequence is the full UniProt precursor, the tested protein was the secreted form or ectodomain
[3] = protein concentration 0.0075 µM
[4] = protein concentration 0.019925 µM
[5] = protein concentration 0.19925 µM
[6] = protein concentration 0.0105 µM
[7] = protein concentration 0.0254286 µM
[8] = protein concentration 0.254286 µM
[9] = protein concentration 0.00525 µM
[10] = protein concentration 0.0525 µM
[11] = protein concentration 0.027515 µM
[12] = protein concentration 0.27515 µM
[13] = protein concentration 0.03125 µM
[14] = protein concentration 0.3125 µM
[15] = protein concentration 0.0225 µM
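Further: secreted proteins added to cultured cells, EdU pulse at the end, nuclei found by Hoechst imaging, EdU status from nuclear versus surrounding ring intensity ratio, PBS as neutral control.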

Sequence: MACWWPLLLELWTVMPTWAGDELLNICMNAKHHKRVPSPEDKLYEECIPWKDNACCTLTTSWEAHLDVSPLYNFSLFHCGLLMPGCRKHFIQAICFYECSPNLGPWIQPVGSLGWEVAPSGQGERVVNVPLCQEDCEEWWEDCRMSYTCKSNWRGGWDWSQGKNRCPKGAQCLPFSHYFPTPADLCEKTWSNSFKASPERRNSGRCLQKWFEPAQGNPNVAVARLFASSAPSWELSYTIMVCSLFLPFLS [A6ND01]
- percentage of EdU-negative [1, 3]: 24.06 ± 0.21%
- percentage of EdU-negative ([1]; protein concentration 0.075 µM): 25.05 ± 0.12%
- percentage of EdU-negative [2, 3]: 5.08 ± 0.06%
- percentage of EdU-negative ([2]; protein concentration 0.075 µM): 7.68 ± 0.15%

Sequence: MTILGTTFGMVFSLLQVVSGESGYAQNGDLEDAELDDYSFSCYSQLEVNGSQHSLTCAFEDPDVNITNLEFEICGALVEVKCLNFRKLQEIYFIETKKFLLIGKSNICVKVGEKSLTCKKIDLTTIVKPEAPFDLSVVYREGANDFVVTFNTSHLQKKYVKVLMHDVAYRQEKDENKWTHVNLSSTKLTLLQRKLQPAAMYEIKVRSIPDHYFKGFWSEWSPSYYFRTPEINNSSGEMDPILLTISILSFFSVALLVILACVLWKKRIKPIVWPSLPDHKKTLEHLCKKPRKNLNVSFNPESFLDCQIHRVDDIQARDEVEGFLQDTFPQQLEESEKQRLGGDVQSPNCPSEDVVITPESFGRDSSLTCLAGNVSACDAPILSSSRSLDCRESGKNGPHVYQDLLLSLGTTNSTLPPPFSLQSGILTLNPVAQGQPILTSLGSNQEEAYVTMSSFYQNQ
- percentage of EdU-negative [1, 4]: 28.1 ± 1.4%
- percentage of EdU-negative [1, 5]: 27.6 ± 2.4%
- percentage of EdU-negative [2, 4]: 5.3 ± 0.72%
- percentage of EdU-negative [2, 5]: 5.96 ± 0.062%

Sequence: MSLWKKTVYRSLCLALALLVAVTVFQRSLTPGQFLQEPPPPTLEPQKAQKPNGQLVNPNNFWKNPKDVAAPTPMASQGPQAWDVTTTNCSANINLTHQPWFQVLEPQFRQFLFYRHCRYFPMLLNHPEKCRGDVYLLVVVKSVITQHDRREAIRQTWGRERQSAGGGRGAVRTLFLLGTASKQEERTHYQQLLAYEDRLYGDILQWGFLDTFFNLTLKEIHFLKWLDIYCPHVPFIFKGDDDVFVNPTNLLEFLADRQPQENLFVGDVLQHARPIRRKDNKYYIPGALYGKASYPPYAGGGGFLMAGSLARRLHHACDTLELYPIDDVFLGMCLEVLGVQPTAHEGFKTFGISRNRNSRMNKEPCFFRAMLVVHKLLPPELLAMWGLVHSNLTCSRKLQVL [Q8NFL0]
- percentage of EdU-negative [1, 6]: 25.6 ± 1%
- percentage of EdU-negative ([1]; protein concentration 0.105 µM): 27.97 ± 0.1%
- percentage of EdU-negative [2, 6]: 4.88 ± 0.47%
- percentage of EdU-negative ([2]; protein concentration 0.105 µM): 6.5 ± 1.4%

Sequence: MGLTLLLLLLLGLEGQGIVGSLPEVLQAPVGSSILVQCHYRLQDVKAQKVWCRFLPEGCQPLVSSAVDRRAPAGRRTFLTDLGGGLLQVEMVTLQEEDAGEYGCMVDGARGPQILHRVSLNILPPEEEEETHKIGSLAENAFSDPAGSANPLEPSQDEKSIPLIWGAVLLVGLLVAAVVLFAVMAKRKQGNRLGVCGRFLSSRVSGMNPSSVVHHVSDSGPAAELPLDVPHIRLDSPPSFDNTTYTSLPLDSPSGKPSLPAPSSLPPLPPKVLVCSKPVTYATVIFPGGNKGGGTSCGPAQNPPNNQTPSS [Q86YW5]
- percentage of EdU-negative [1, 7]: 20.7 ± 3.4%
- percentage of EdU-negative [1, 8]: 26 ± 4.5%
- percentage of EdU-negative [2, 7]: 5.07 ± 0.49%
- percentage of EdU-negative [2, 8]: 5.75 ± 0.65%

Sequence: MEDLCVANTLFALNLFKHLAKASPTQNLFLSPWSISSTMAMVYMGSRGSTEDQMAKVLQFNEVGANAVTPMTPENFTSCGFMQQIQKGSYPDAILQAQAADKIHSSFRSLSSAINASTGNYLLESVNKLFGEKSASFREEYIRLCQKYYSSEPQAVDFLECAEEARKKINSWVKTQTKGKIPNLLPEGSVDGDTRMVLVNAVYFKGKWKTPFEKKLNGLYPFRVNSAQRTPVQMMYLREKLNIGYIEDLKAQILELPYAGDVSMFLLLPDEIADVSTGLELLESEITYDKLNKWTSKDKMAEDEVEVYIPQFKLEEHYELRSILRSMGMEDAFNKGRANFSGMSERNDLFLSEVFHQAMVDVNEEGTEAAAGTGGVMTGRTGHGGPQFVADHPFLFLIMHKITNCILFFGRFSSP
- percentage of EdU-negative [1, 9]: 24.7 ± 0.25%
- percentage of EdU-negative [1, 10]: 27.383 ± 0.014%
- percentage of EdU-negative [2, 9]: 5.431 ± 0.036%
- percentage of EdU-negative [2, 10]: 5.26 ± 1.3%

Sequence: MQALVLLLCIGALLGHSSCQNPASPPEEGSPDPDSTGALVEEEDPFFKVPVNKLAAAVSNFGYDLYRVRSSTSPTTNVLLSPLSVATALSALSLGAEQRTESIIHRALYYDLISSPDIHGTYKELLDTVTAPQKNLKSASRIVFEKKLRIKSSFVAPLEKSYGTRPRVLTGNPRLDLQEINNWVQAQMKGKLARSTKEIPDEISILLLGVAHFKGQWVTKFDSRKTSLEDFYLDEERTVRVPMMSDPKAVLRYGLDSDLSCKIAQLPLTGSMSIIFFLPLKVTQNLTLIEESLTSEFIHDIDRELKTVQAVLTVPKLKLSYEGEVTKSLQEMKLQSLFDSPDFSKITGKPIKLTQVEHRAGFEWNEDGAGTTPSPGLQPAHLTFPLDYHLNQPFIFVLRDTDTGALLFIGKILDPRGP
- percentage of EdU-negative [1, 11]: 26.5 ± 1.4%
- percentage of EdU-negative [1, 12]: 28 ± 0.47%
- percentage of EdU-negative [2, 11]: 5.35 ± 0.62%
- percentage of EdU-negative [2, 12]: 9.19 ± 1.1%

Sequence: MALSFSLLMAVLVLSYKSICSLGCDLPQTHSLGNRRALILLAQMGRISHFSCLKDRYDFGFPQEVFDGNQFQKAQAISAFHEMIQQTFNLFSTKDSSAAWDETLLDKFYIELFQQLNDLEACVTQEVGVEEIALMNEDSILAVRKYFQRITLYLMGKKYSPCAWEVVRAEIMRSFSFSTNLQKGLRRKD
- percentage of EdU-negative [1, 13]: 47.8 ± 1.4%
- percentage of EdU-negative [1, 14]: 49.2 ± 3.4%
- percentage of EdU-negative [2, 13]: 11.7 ± 1.5%
- percentage of EdU-negative [2, 14]: 18.9 ± 0.54%

Sequence: MRWILFIGALIGSSICGQEKFFGDQVLRINVRNGDEISKLSQLVNSNNLKLNFWKSPSSFNRPVDVLVPSVSLQAFKSFLRSQGLEYAVTIEDLQALLDNEDDEMQHNEGQERSSNNFNYGAYHSLEAIYHEMDNIAADFPDLARRVKIGHSFENRPMYVLKFSTGKGVRRPAVWLNAGIHSREWISQATAIWTARKIVSDYQRDPAITSILEKMDIFLLPVANPDGYVYTQTQNRLWRKTRSRNPGSSCIGADPNRNWNASFAGKGASDNPCSEVYHGPHANSEVEVKSVVDFIQKHGNFKGFIDLHSYSQLLMYPYGYSVKKAPDAEELDKVARLAAKALASVSGTEYQVGPTCTTVYPASGSSIDWAYDNGIKFAFTFELRDTGTYGFLLPANQIIPTAEETWLGLKTIMEHVRDNLY [Q9UI42]
- percentage of EdU-negative [1, 15]: 26.3 ± 1.7%
- percentage of EdU-negative ([1]; protein concentration 0.225 µM): 29.1 ± 1.7%
- percentage of EdU-negative [2, 15]: 5.99 ± 0.71%
- percentage of EdU-negative ([2]; protein concentration 0.225 µM): 5.12 ± 0.8%
